Laboratory results reported in patent US20030235860A1, “Interactions between AR, ER, TR2, and TR4” (priority 1999, published 2003).

What was measured:
[1] = target: T1, TR2 orphan receptor (full length, 603 aa) (UniProt P13056 SEQ:1-603); test: EMSA; no TR2-ERE band; conditions: chain copies: 2; label: 32P
T1 chain: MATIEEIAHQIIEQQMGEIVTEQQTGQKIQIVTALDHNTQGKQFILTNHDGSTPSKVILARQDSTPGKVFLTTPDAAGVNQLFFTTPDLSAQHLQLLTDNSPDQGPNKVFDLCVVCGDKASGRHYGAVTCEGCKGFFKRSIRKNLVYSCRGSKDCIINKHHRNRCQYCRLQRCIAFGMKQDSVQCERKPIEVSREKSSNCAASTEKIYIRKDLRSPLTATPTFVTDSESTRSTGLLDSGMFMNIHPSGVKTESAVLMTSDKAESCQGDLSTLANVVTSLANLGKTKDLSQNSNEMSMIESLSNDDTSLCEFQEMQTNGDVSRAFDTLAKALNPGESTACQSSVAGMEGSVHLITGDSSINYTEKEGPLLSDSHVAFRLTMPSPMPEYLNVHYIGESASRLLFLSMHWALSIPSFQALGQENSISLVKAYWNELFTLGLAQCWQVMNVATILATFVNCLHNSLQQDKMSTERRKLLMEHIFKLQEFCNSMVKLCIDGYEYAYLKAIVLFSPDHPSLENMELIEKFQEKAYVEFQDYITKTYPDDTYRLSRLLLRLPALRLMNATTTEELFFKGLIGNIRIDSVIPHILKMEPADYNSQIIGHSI

[2] = target: T2, Estrogen receptor alpha (ER) (Homo sapiens, UniProt P03372 SEQ:1-595); test: EMSA; with or without E2; supershifted by C-314; competed by 100-fold cold ERE; decreased by added TR2; conditions: chain copies: 2; label: 32P
T2 chain: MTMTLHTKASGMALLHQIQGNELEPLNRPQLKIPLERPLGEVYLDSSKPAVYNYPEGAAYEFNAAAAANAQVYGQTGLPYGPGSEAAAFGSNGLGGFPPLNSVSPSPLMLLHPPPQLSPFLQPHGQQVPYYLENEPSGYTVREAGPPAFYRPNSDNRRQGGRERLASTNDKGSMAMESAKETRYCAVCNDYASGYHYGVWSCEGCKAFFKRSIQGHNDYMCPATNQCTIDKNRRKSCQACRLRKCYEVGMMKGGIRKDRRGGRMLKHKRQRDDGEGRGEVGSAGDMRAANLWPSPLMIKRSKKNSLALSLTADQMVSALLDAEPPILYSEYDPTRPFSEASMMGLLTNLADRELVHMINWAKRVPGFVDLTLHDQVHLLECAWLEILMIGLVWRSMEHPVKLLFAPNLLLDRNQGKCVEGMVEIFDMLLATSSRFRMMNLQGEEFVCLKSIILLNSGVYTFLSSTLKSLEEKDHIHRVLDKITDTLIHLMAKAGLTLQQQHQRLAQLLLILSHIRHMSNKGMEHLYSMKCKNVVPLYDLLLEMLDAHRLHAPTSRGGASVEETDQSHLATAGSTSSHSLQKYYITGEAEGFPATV

B1: complement C3 ERE (dsDNA)
DNA 1: AGGTGGCCCTGACCC
DNA 2: GGGTCAGGGCCACCT
binding result [1]: no binding
binding result [2]: binds
